Assay results published in publication PMC11601375 (bioRxiv, 2024).

Molecular target: T1, vacuolar Qa-SNARE Vam3 (yeast, UniProt Q12241 1-283)
T1 sequence: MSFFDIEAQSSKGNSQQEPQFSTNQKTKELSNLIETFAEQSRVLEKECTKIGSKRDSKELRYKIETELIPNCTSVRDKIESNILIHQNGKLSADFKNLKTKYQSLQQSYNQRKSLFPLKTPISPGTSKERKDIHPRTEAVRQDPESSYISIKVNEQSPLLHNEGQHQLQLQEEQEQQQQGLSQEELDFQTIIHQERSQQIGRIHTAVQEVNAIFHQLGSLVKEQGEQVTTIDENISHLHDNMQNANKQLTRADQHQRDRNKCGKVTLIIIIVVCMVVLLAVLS
Assay: co-IP

binding result: binds
B1: vacuolar Qb-SNARE Vti1 (natural protein)
chain: MSSLLISYESDFKTTLEQAKASLAEAPSQPLSQRNTTLKHVEQQQDELFDLLDQMDVEVNNSIGDASERATYKAKLREWKKTIQSDIKRPLQSLVDSGDRDRLFGDLNASNIDDDQRQQLLSNHAILQKSGDRLKDASRIANETEGIGSQIMMDLRSQRETLENARQTLFQADSYVDKSIKTLKTMTRRLVANKFISYAIIAVLILLILLVLFSKFK
